Series [1] has as its target T1, Nurr1258 (in Nurr1258-RXRα98 heterodimer);RXRα98 (DBD-hinge-LBD) (human?;human?, UniProt P43354;P19793 258-598;98-462, |). As to the kind of experiment: BLI. Background: BLI is a label-free optical method that tracks binding on a fibre tip over time.
Series [2] deals with T1, Nurr1258 (in Nurr1258-RXRα98 …). Nature of the series: BLI. The source holds these as a separate data set.
In series [3] the target is Nurr1258 (Nurr1 DBD-hinge-LBD) (UniProt P43354 258-598). Nature of the series: crystal structure.
Nurr1258 (Nurr1 DBD-hinge-LBD), sequence (P43354 258-598): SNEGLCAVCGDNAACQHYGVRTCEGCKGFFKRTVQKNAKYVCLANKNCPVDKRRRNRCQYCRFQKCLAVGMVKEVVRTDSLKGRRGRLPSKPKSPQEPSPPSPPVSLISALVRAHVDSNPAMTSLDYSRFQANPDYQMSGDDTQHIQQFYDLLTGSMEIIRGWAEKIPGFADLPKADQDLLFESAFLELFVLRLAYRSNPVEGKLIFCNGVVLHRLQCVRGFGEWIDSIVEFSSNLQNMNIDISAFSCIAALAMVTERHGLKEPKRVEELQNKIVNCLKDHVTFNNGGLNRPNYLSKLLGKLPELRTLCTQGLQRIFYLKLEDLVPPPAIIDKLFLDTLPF

Where two headings read alike, the source gives them in different places.

In general, Kd refers to the constant that tells how readily two partners part at equilibrium. Read a low Kd as higher affinity.

T1 sequence (P43354 258-598, chain 1 of 2): as the sequence (P43354 258-598) above
T1 sequence (P19793 98-462, chain 2 of 2): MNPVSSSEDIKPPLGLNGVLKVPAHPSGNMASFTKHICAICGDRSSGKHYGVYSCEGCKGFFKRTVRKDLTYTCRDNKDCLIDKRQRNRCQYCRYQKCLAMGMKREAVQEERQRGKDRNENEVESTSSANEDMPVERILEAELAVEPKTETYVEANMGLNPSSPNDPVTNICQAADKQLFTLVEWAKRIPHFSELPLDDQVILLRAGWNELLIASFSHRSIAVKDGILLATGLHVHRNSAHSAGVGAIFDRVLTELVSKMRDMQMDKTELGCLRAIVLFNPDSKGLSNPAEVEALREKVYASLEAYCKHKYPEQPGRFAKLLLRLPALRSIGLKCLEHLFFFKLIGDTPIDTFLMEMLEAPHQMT

B1: IR5 biotinylated (dsDNA)
DNA 1: AAAGGTCAAACTGTGACCTAT
DNA 2: ATAGGTCACAGTTTGACCTTT
For B1, the figures for the dissociation constant (Kd) in series [1] and in series [2] were 62.5 nM and 864 nM, respectively.

B2: NBRE (dsDNA)
DNA 1: CCGAAAAGGTCATGCG
DNA 2: CGCATGACCTTTTCGG
As for B2, the binding result in series [3] is reported as “binds”.

Values taken from PMC9894219.
